In the supplement of paper PMC10899765:
“And” between values parts separate entries of the source, which are not always exact repeats. Equal values may be shown once.

Tests used:
Conditions in all cases: 20 nM; 72 h
MCF10A [1] = experiment: percent viability (nuclei count relative to siNT); higher = more viable cells
Experimental: (§1)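 After 72 h, cells were fixed and stained with Hoechst and anti-fibrillarin, and nucleoli per nucleus were counted with CellProfiler. Values are plate-adjusted percent effect for the one-nucleolus and 5+ nucleoli phenotypes, normalised to siNT (0%) and to the positive controls siNOL11 or siKIF11 (100%), as the mean of biological triplicates. Percent viability is the nuclei count relative to siNT.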

MCF10A [2] = experiment: 5+ nucleoli phenotype percent effect (relative to siNT 0% and siKIF11 100%); higher = more cells with five or more nucleoli
Experimental: as §1

MCF10A [3] = experiment: one-nucleolus phenotype percent effect (relative to siNT 0% and siNOL11 100%); higher = more cells with one nucleolus (ribosome biogenesis inhibition)
Experimental: as §1

Sequence: UGGAAGGGAGAAGAGCUUUAAU [hsa-miR-3202]
- percent viability (MCF10A [1]): 21.6%
- 5+ nucleoli phenotype percent effect (MCF10A [2]): -35.3%
- one-nucleolus phenotype percent effect (MCF10A [3]): 62.8%

Sequence: CCAGGAGGCGGAGGAGGUGGAG [hsa-miR-4459]
- percent viability (MCF10A [1]): 64.6%
- 5+ nucleoli phenotype percent effect (MCF10A [2]): -0.862%
- one-nucleolus phenotype percent effect (MCF10A [3]): 9.39%

Sequence: GCCCUCCGCCCGUGCACCCCG [hsa-miR-1470]
- percent viability (MCF10A [1]): 113%
- 5+ nucleoli phenotype percent effect (MCF10A [2]): 45.2%
- one-nucleolus phenotype percent effect (MCF10A [3]): -19.6%

Sequence: CUGCAGCCACUUGGGGAACUGGU [hsa-miR-7156-3p]
- percent viability (MCF10A [1]): 57.4%
- 5+ nucleoli phenotype percent effect (MCF10A [2]): -7.7%
- one-nucleolus phenotype percent effect (MCF10A [3]): 8.88%

Sequence: CAGCGGAGCCUGGAGAGAAGG [hsa-miR-7846-3p]
- percent viability (MCF10A [1]): 41.6%
- 5+ nucleoli phenotype percent effect (MCF10A [2]): -18.4%
- one-nucleolus phenotype percent effect (MCF10A [3]): 11.9%

Sequence: GUGAGGAGGGGCUGGCAGGGAC [hsa-miR-6858-5p]
- percent viability (MCF10A [1]): 84.1%
- 5+ nucleoli phenotype percent effect (MCF10A [2]): 7.04%
- one-nucleolus phenotype percent effect (MCF10A [3]): -12.2%

Sequence: CCAGGCUCUGCAGUGGGA [hsa-miR-3155b]
- percent viability (MCF10A [1]): 65.5%
- 5+ nucleoli phenotype percent effect (MCF10A [2]): 29.5%
- one-nucleolus phenotype percent effect (MCF10A [3]): -8.6%

Sequence: CUGGGAGGUGUGAUAUCGUGGU [hsa-miR-3689a-3p]
- percent viability (MCF10A [1]): 12.5%
- 5+ nucleoli phenotype percent effect (MCF10A [2]): 27.1%
- one-nucleolus phenotype percent effect (MCF10A [3]): 27.5%

Sequence: UGUGAUAUCAUGGUUCCUGGGA [hsa-miR-3689e]
- percent viability (MCF10A [1]): 30.9%
- 5+ nucleoli phenotype percent effect (MCF10A [2]): -30.6%
- one-nucleolus phenotype percent effect (MCF10A [3]): 4.57%

Sequence: UUCUGGAAUUCUGUGUGAGGGA [hsa-miR-1299]
- percent viability (MCF10A [1]): 58.7%
- 5+ nucleoli phenotype percent effect (MCF10A [2]): -3.13%
- one-nucleolus phenotype percent effect (MCF10A [3]): 19.2%

Sequence: CUCUAGAGGGAAGCGCUUUCUG [hsa-miR-518e-5p]
- percent viability (MCF10A [1]): 26.7%
- 5+ nucleoli phenotype percent effect (MCF10A [2]): 3.26%
- one-nucleolus phenotype percent effect (MCF10A [3]): -0.877%

Sequence: CCUCUUCCCCUUGUCUCUCCAG [hsa-miR-1236-3p]
- percent viability (MCF10A [1]): 76.4%
- 5+ nucleoli phenotype percent effect (MCF10A [2]): 14.8%
- one-nucleolus phenotype percent effect (MCF10A [3]): -6.25%

Sequence: AGUGGUUCUUAACAGUUCAACAGUU [hsa-miR-203a-5p]
- percent viability (MCF10A [1]): 150%
- 5+ nucleoli phenotype percent effect (MCF10A [2]): 60.5%
- one-nucleolus phenotype percent effect (MCF10A [3]): -32.6%

Sequence: UGGGAAUGGGGGUAAGGGCC [hsa-miR-6716-5p]
- percent viability (MCF10A [1]): 28.8%
- 5+ nucleoli phenotype percent effect (MCF10A [2]): -19.9%
- one-nucleolus phenotype percent effect (MCF10A [3]): 19.7%

Sequence: UGUGUCCGGGAAGUGGAGGAGG [hsa-miR-4669]
- percent viability (MCF10A [1]): 74.6%
- 5+ nucleoli phenotype percent effect (MCF10A [2]): -24.1%
- one-nucleolus phenotype percent effect (MCF10A [3]): 2.82%

Sequence: ACCAGCGCGUUUUCAGUUUCAU [hsa-miR-4738-5p]
- percent viability (MCF10A [1]): 51.5%
- 5+ nucleoli phenotype percent effect (MCF10A [2]): 13.4%
- one-nucleolus phenotype percent effect (MCF10A [3]): 7.61%

Sequence: UGCUGCCUCUCCUCUUGCCUGCAG [hsa-miR-6882-3p]
- percent viability (MCF10A [1]): 45.6%
- 5+ nucleoli phenotype percent effect (MCF10A [2]): 44.3%
- one-nucleolus phenotype percent effect (MCF10A [3]): -22.8%

Sequence: GUUCAAAUCCAGAUCUAUAAC [hsa-miR-607]
- percent viability (MCF10A [1]): 111%
- 5+ nucleoli phenotype percent effect (MCF10A [2]): 34.2%
- one-nucleolus phenotype percent effect (MCF10A [3]): -23.2%

Sequence: UUGUUCUCAAACUGGCUGUCAGA [hsa-miR-7156-5p]
- percent viability (MCF10A [1]): 46.2%
- 5+ nucleoli phenotype percent effect (MCF10A [2]): 25.8%
- one-nucleolus phenotype percent effect (MCF10A [3]): -16.5%

Sequence: UCUUGAAGUCAGAACCCGCAA [hsa-miR-4635]
- percent viability (MCF10A [1]): 45.8%
- 5+ nucleoli phenotype percent effect (MCF10A [2]): -29.8%
- one-nucleolus phenotype percent effect (MCF10A [3]): 19.8%

Sequence: AUCUAAAUGCAGCAUGCCAGUC [hsa-miR-4799-5p]
- percent viability (MCF10A [1]): 59.9%
- 5+ nucleoli phenotype percent effect (MCF10A [2]): 15%
- one-nucleolus phenotype percent effect (MCF10A [3]): -0.603%

Sequence: GUUUUACCACCUCCAGGAGACU [hsa-miR-2681-5p]
- percent viability (MCF10A [1]): 36%
- 5+ nucleoli phenotype percent effect (MCF10A [2]): 3.14%
- one-nucleolus phenotype percent effect (MCF10A [3]): -33.4%

Sequence: GCGGCGAGUCCGACUCAU [hsa-miR-4285]
- 5+ nucleoli phenotype percent effect (MCF10A [2]): 32.6% and 20.7%
- one-nucleolus phenotype percent effect (MCF10A [3]): -17.6% and -20.2%

Sequence: AAAAACUGUAAUUACUUUU [hsa-miR-548f]
- 5+ nucleoli phenotype percent effect (MCF10A [2]): 53.7% and 60% and 60.4%
- one-nucleolus phenotype percent effect (MCF10A [3]): -26.8% and -24.7% and -21.2%
